This series can be described thus: soluble on expression in E. coli; label from the status in PepcDB or PDB records.
“MNSTNSGPPDSGSATGVVPTPDEIASLLQVEHLLDQRWPETRIDPSLTRISALMDLLGSPQRSYPSIHIAGTNGKTSVARMVDALVTALHRRTGRTTSPHLQSPVERISIDGKPISPAQYVATYREIEPLVALIDQQSQASAGKGGPAMSKFEVLTAMAFAAFADAPVDVAVVEVGMGGRWDATNVINAPVAVITPISIDHVDYLGADIAGIAGEKAGIITRAPDGSPDTVAVIGRQVPKVMEVLLAESVRADASVAREDSEFAVLRRQIAVGGQVLQLQGLGGVYSDIYLPLHGEHQAHNAVLALASVEAFFGAGAQRQLDGDAVRAGFAAVTSPGRLERMRSAPTVFIDAAHNPAGASALAQTLAHEFDFRFLVGVLSVLGDKDVDGILAALEPVFDSVVVTHNGSPRALDVEALALAAGERFGPDRVRTAENLRDAIDVATSLVDDAAADPDVAGDAFSRTGIVITGSVVTAGAARTLFGRDPQ”: the “soluble on expression in E. coli” value is “soluble”. Then “MKVEQIYTGCLAQGAYYITSMGEAAIIDPLREITPYLERLKRDGVKLKYILETHFHADFVSGHLDLSRATGAPIVYGPTAKPGFDAIVAEDNQIFELGNVKIRVLHTPGHTMESSCFLLIDENGREAALFSGDTLFLGDVGRPDLAQKAANLTQEELAGLLYDSLYTKILPLSDDIIVYPAHGAGSACGKNMMQETVDSLGNQKRVNYALNQPGKEAFIASVIEGLLPPPAYFGGNVAMNKMGYDSIDNVMERGLSALSATDFEAIAKTSDALVLDTRAPGVFAQGFIPRSINIGLDGDFAPWVGTMIVDVKQPLLLVADPGREQEVITRLSRVGFDQVLGYLDGGFDTWNASGKEIDHVECITANEFAERFCPEESLVFDVRKESEYAAEHVEGAYSRPLAYINDWIQDIPRDRHFYLHCIGGYRSMIASSILLSRGYRNFTDIEGGFASIAQTGVPKTDYVCQSKVSKKLEHHHHHH”, with “soluble”; and “MPDADVNDFELVDVDQKAADKAIKDLGVKATIDEVCTVGEEGYVVTATDKEGYGGDIKITVGITADGTINGISILSISETAGLGMRATEPAFYEQYQGKQAEKFVVSKDGGDGEPIDALSGATITSRAVTGAVNAALGYYQNAFLEHHHHHH”, with “soluble”; and “MGSDKIHHHHHHMRVRSVTEEDYLKIIQELVLYQDYAQLSDIAKSLQVKRQSARDEINHLIDLGMVKKIDRGKYVLTDQGDIEANIFLRKHRTAEVLLSQCVGIEWDAVDREAMGIEHGMTEEIIHRVIERFNAKRCPHGNPIPSPEGYVEKIDDVRITDLNETGDVIISRIIYETDEILNYLYANQILPGAKVKIIRTGFPLQIEKDGRLLSLDPSIAKAIRVSSIK”, with “not soluble”.

With “MGSDKIHHHHHHMNAEKSPENHNVDHEEIAKFEAVASRWWDLEGEFKPLHRINPLRLGYIAERAGGLFGKKVLDVGCGGGILAESMAREGATVTGLDMGFEPLQVAKLHALESGIQVDYVQETVEEHAAKHAGQYDVVTCMEMLEHVPDPQSVVRACAQLVKPGGDVFFSTLNRNGKSWLMAVVGAEYILRMVPKGTHDVKKFIKPAELLGWVDQTSLKERHITGLHYNPITNSFKLGPGVDVNYMLHTQNK”, the “soluble on expression in E. coli” value is given as “not soluble”. Regarding “MEVEYDEGFDSSSLKNNPASLQRDYPTFMESNCSQMSVRQEFLPIFPQRLDLCQISPKKSEKKSKKKKIPSPIKKTNDTKLSILSEKSEIRSEKHKNKCKSADLDAMEKNFKELLENFSKNAALSNSLRDEASSIISSSASSQKSLFKEINLAKKLSASYSKKPEKTGEKSKNCTFSDSTFRLSSQNDSDSDDTRPPSSQASLAFEVEQARNMMMSSAKIPKPLSSSTPRKERRTTGTNSDSNKILANLKIFKPKCGNFDLFTRKVPENIRLSESQLVELYSNREPRNSKSDITIRQFFDEEDDADKTIVEQVFKDYHRSLEKETPIMRNSATDTSGSLHIERNRDGRSASMSNLISNSGNRTNLTVFDGFAPGALRHSISTVQMSPTKKKFDEFRIEHQEPGILPRFVIKTSLRPIFSPPLDIDEICGKGLRKDAESNLRHFGGKTISAQIHGSKPVQRRPTVPKASKTGSDRPTTASTAKIVEKPEIPVEIPQKLEISRKIAEKTLKLDDFPVKSSNFSNISNFQPRRPPYCSATSSDGSAHSLATVTQQLMGTVKLLHPDWLDMLRRLLNNALPRDDVTLLFKYQVLAEKDHLERKFRGNLSVEAEAADAHLEHFGRISTLNRVLDRLADLTNDGGHVSRIQQIKIIHNALFKD”, the “soluble on expression in E. coli” value was “not soluble”. Then “MRHMSGDHAALVLGAGAGRRLGRSKQLLMRDGEPLLRRAARIALLTAPRRCVVVLGADADTLSEVLQDLDIEILRHPDWSEGMGSSLAALRRHVQGDPALRRSLILGCDQPALDAPHLRSLLEEADRAVSGCATSGYSGVRGIPAVVTHTAWADVPLQADSGLRGLFASLDMQSLGCVSAPALALDIDTPADLATAQQRGWVDAELEHHHHHH”, with “not soluble”; and “MNVWSKLLTALRGGANEAGEALVDSQALRILDQEIRDADQELRKSKEALAEIMARQKLAAERANGSAAKIAEYESYALKALEAGNEALAQEVAQKIANLENDLAVEREQADGFAASVAQLRKAVTQAEGNIKHLKQQVDTVKATESVQKAQQAVAQRYGGSQSKLHTAVESLERIKQKQAERAAKMDAAAELANTSSPDDALDAKLREAGIVAGSTSADSVLARLKDRSKSLEHHHHHH”, with “not soluble”. Then “MGSDKIHHHHHHMTAALPAGSDLVIVLPHLGPGGAQKVALMAAEHFLVQGRQVTLVTLLPDKPLSHAVPEGLRWVDLGPAVAETTSNRAPIARIWRFSCTWGRRSLAWISLVIGWKVLKRLVPGQAPLFVQWLVSSASGVQATLLRDLLYAGKPARVLSLLTRTNLLCCQAMWALPGHLVVSERNDPRLQKQSFPWLRLRSWLWQRADVITANTIGVLEGLQHCHPAMADDMRLLPNPLVVDSHPGNHSDEPASGTCFLAVCRLVPQKGIDLLIQAYAQLPEPLREMWPLLIAGDGPERASLETLASSLLPRGQVRFMGFQRNPQVLYHRDAVFVLSSRFEGMPNSLLEAMGSGLAVIVSDASPGPLEVVVHGKSGWVVPTEKVTLLAEAMQAMAENPALRCRLGDAAAEFMDAYSWDTLDPIWSDILCLEKPG”, with “not soluble”. Then “MTIDNYDNSKQDSSKYEVSGTGDGRNGDGGLPLVQCVARARIPTTQGPDIFLHLYSNNRDNKEHLAIVFGEDIRSRSLFRRRQCETQQDRMIRGAYIGKLYPGRTVADEDDRLGLALEFDDSTGELLASKATTWDAHNDTLVRIHSECYTGENAWSARCDCGEQFDRAGRLIACDHEPTSNIKGGNGHGVIVYLRQEGRGIGLGEKLKAYNLQDLGADTVQANLMLKHPVDARDFSLGKAILLDLGIGNVRLLTNNPEKIKQVDHAPYLKCVERVPMVPIHWTNSSEGIDSKEIEGYLRTKIERMGHLLTEPLKLHTNPQPTETSEAQNQNRMNSALSSTSTLAI”, with “soluble”; and “MGSDKIHHHHHHMFRSMRTSHERVHFTAKARRASTMAAPQNKVIVTCAVTGGIHTPTMSPHLPITARDIEDESVAAAEAGAAIVHLHARKPENGQPSQDPALFLEFLPRIAARSDVVINLTTGGAPNMLVEERLQPALQLKPEVASLNMGSMNFGLYPMIARHKTFKYDWERPYLEGSEDRVFRNTFKEIRYILESCADNGTRFEIECYDTSHLYTAAHFIDRGILKPPFFIQSVFGLLGGIGTHPDDVMHMRRTAERLFGKDYYWSVLGAGRSQMPIASMAAAMGGNVRVGLEDSLWEDRGRLSRSNADQVRRVVGILKSLNLEVATPDEARDMLQLKGRDAVAF”, with “not soluble”; and “MSLAWAPKNYIEKVVAIYDYTKDKDDELSFKEGAIIYVIKKNDDGWFEGVCNRVTGLFPGNYVESIMHYTDEGHHHHHH”, with “soluble”. Regarding “AAADSTSMSYSVTLTGPGPWGFRLQGGKDFNMPLTISRITPGSKAAQSQLSQGDLVVAIDGVNTDTMTHLEAQNKIKSASYNLSLTLQKSKRPIPISTTAPPVQTPLPVIPHQKDPALDTNGSLVAPSPSPEARASPGTPGTPELRPTFSPAFSRPSAFSSLAEASDPGPPRASLRAKTSPEGARDLLGPKALPGSSQPRQYNNPIGLYSAETLREMAQMYQMSLRGKASGVGLPGGSLPIKDLAVDSASPVYQAVIKSQNKPEDEADEWARRSSNLQSRSFRILAQMTGTEFMQDPDEEALRRSSTPIEHAPVCTSQATTPLLPASAQPPAAASPSAASPPLATAAAHTAIASASTTAPASSPADSPRPQASSYSPAVAASSAPATHTSYSEGPAAPAPKPRVVTTASIRPSVYQPVPASTYSPSPGANYSPTPYTPSPAPAYTPSPAPAYTPSPVPTYTPSPAPAYTPSPAPNYNPAPSVAYSGGPAEPASRPPWVTDDSFSQKFAPGKSTTSISKQTLPRGGPAYTPAGPQVPPLARGTVQRAERFPASSRTPLCGHCNNVIRGPFLVAMGRSWHPEEFTCAYCKTSLADVCFVEEQNNVYCERCYEQFFAPLCAKCNTKIMGEVMHALRQTWHTTCFVCAACKKPFGNSLFHMEDGEPYCEKDYINLFSTKCHGCDFPVEAGDKFIEALGHTWHDTCFICAVCHVNLEGQPFYSKKDRPLCKKHAHTINL”, the “soluble on expression in E. coli” value is “soluble”. With “MGSDKIHHHHHHMAKIKHGFSGQRLIVYPFYVIEQALNNPLVADLVVHSMGYFPKAESHYIDRASGCGEYLLIYCTKGEGWYVLDGKRYVVPENHFFILPAEKPHQYGSSEHDPWYIYWAHFKGKKAKYISDQLQGVIPIDMDDNSRIGDRIAFFDELLNVLESGTDEATVNYVNLSFNHLIASFLYVKTYREAKFSKSKAENTFFISLATHFMTENLENKLTLKELASHFGYSESYMYRLFFKETGYAPMNYFLHMKIDRACQLLLHTNMKINQVALKLGFDDPYYFSRIFKKIVGTSPKDYRHSLPK” the entry was “not soluble”. With “MGSDKIHHHHHHMFKSTLNSIIRRPLKGFQLLRGADSSNTRPQSPRASARDVTEKQILRTPSAPTAIPLREIIYRVPSLFPRPLEDSVKDFRDFIKNEDAFQTELLKTLPFYPTPSESKTARLIRTVVDDEGNYINEFCIRPRKTSVPEADLKHLVFIHGYGAGLGFFIKNFEDIPLLDNEWCIHAIDLPGYGFSSRPKFPFEYPRDNIHSVQDWFHERIHTWFSKRNLLNRPEKNIVMAHSLGSYLMALYLQKYKESPSFKKLILCSPAGVSYRDFNNTASEVEKWKPPPWWYVKLWDRNISPFTLVRNFRQLGSKITSGWSYRRFKHILNGDPEQSKRFEALHRYAYAIFNKRGSGEYLLSFALKCGGEPRLSLEQQLFDGKKSDILKNSNCDWLWLYGDDDWMDVNGGLRVSRFLKEKLKQKSNVIIVPHSGHHLYLDNYKFFNNILTKEMQKI” the entry was “not soluble”; with “MFEKEKEGLIEVQNVYEIAPEDGTIIGMATEEEMEIAAELELQYYAHSRLLEANIQLDGSSYKELLQEFQEYERKSMSFWRAIHKRLAVPWAWVLRIDVANGPIYVSNGSSYYEEIDDEEDYE”, “not soluble”; with “MSLKNSMTILDAIRALDDPTRLRIMRLLASMELAVGEVAQVLGQSQPRVSRHIKILCDSGLAERRKEGAWVFLRSSIGEGAESPLASALARLLAVAEHEDTAFGRRCSEDRQHLDAIRSSRESHALEWFARHADEWDELRSLHIADGPVEAALTEMLLALSGDGSLGRLLDVGTGTGRIAELFAPNAAHVVAFDKSPDMLRIARARLQHLPADAVELVQGDFAQLPFAARSFDTVLFHQVLHYAQAPEAVLAGAARVTAPGGRVAIVDFAAHEREDLRQTHAHARLGFSDAQIETMLLDAGFIPHETRALAGHELVVKLWTAVRREDSVTQLEPRQKSSSGKTEGHHHHHH”, “soluble”. With “MKSFALVRADDSDKVKIALHDLERYGHIQFSATPKCIEPNYADELLVSVMGVSLKSKCNSAALVELNNHAGAAISRLKKIHPPAHIIIISPRHKMFEELAGKFPKYPEFDRTFNHQKSPQGLDMIQEKGESSNA” the entry was “not soluble”.

These data come from the DeepSol protein solubility set.
